Experimental data from patent US20100190693.

Tests used:
[1] = biological target: T1, GST-TORC2 (aa 161-181), wild-type, Q53ET0 (not fully specified)
T1 chain: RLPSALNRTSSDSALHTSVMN

[2] = biological target: GST-TORC2 (aa 161-181) Ser171Ala, Q53ET0
GST-TORC2 (aa 161-181) Ser171Ala, Q53ET0, sequence (Q53ET0 whole entry S171A, looked up, the tested form may be a part): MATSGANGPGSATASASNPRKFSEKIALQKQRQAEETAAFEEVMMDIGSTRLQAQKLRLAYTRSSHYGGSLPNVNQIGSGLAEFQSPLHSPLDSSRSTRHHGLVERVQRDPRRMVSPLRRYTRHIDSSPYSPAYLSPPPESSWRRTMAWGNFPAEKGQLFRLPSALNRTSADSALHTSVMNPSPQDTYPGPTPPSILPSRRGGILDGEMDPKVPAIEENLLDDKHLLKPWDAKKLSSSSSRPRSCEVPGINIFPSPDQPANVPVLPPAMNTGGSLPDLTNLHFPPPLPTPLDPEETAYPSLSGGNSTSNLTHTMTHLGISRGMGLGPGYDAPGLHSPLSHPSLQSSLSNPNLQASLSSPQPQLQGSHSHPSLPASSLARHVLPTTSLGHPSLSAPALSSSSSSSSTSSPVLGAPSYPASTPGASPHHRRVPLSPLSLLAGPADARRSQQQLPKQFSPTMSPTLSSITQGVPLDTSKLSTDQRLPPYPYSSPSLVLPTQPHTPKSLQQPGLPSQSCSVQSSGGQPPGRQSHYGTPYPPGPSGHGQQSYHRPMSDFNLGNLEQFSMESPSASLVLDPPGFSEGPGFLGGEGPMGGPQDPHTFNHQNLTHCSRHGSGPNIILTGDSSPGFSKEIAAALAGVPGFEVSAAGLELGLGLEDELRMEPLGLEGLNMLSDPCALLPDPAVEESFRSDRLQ

B1: Salt Inducible Kinase 2 (SIK2) (protein)
chain: MVMADGPRHLQRGPVRVGFYDIEGTLGKGNFAVVKLGRHRITKTEVAIKIIDKSQLDAVNLEKIYREVQIMKMLDHPHIIKLYQVMETKSMLYLVTEYAKNGEIFDYLANHGRLNESEARRKFWQILSAVDYCHGRKIVHRDLKAENLLLDNNMNIKIADFGFGNFFKSGELLATWCGSPPYAAPEVFEGQQYEGPQLDIWSMGVVLYVLVCGALPFDGPTLPILRQRVLEGRFRIPYFMSEDCEHLIRRMLVLDPSKRLTIAQIKEHKWMLIEVPVQRPVLYPQEQENEPSIGEFNEQVLRLMHSLGIDQQKTIESLQNKSYNHFAAIYFLLVERLKSHRSSFPVEQRLDGRQRRPSTIAEQTVAKAQTVGLPVTMHSPNMRLLRSALLPQASNVEAFSFPASGCQAEAAFMEEECVDTPKVNGCLLDPVPPVLVRKGCQSLPSNMMETSIDEGLETEGEAEEDPAHAFEAFQSTRSGQRRHTLSEVTNQLVVMPGAGKIFSMNDSPSLDSVDSEYDMGSVQRDLNFLEDNPSLKDIMLANQPSPRMTSPFISLRPTNPAMQALSSQKREVHNRSPVSFREGRRASDTSLTQGIVAFRQHLQNLARTKGILELNKVQLLYEQIGPEADPNLAPAAPQLQDLASSCPQEEVSQQQESVSTLPASVHPQLSPRQSLETQYLQHRLQKPSLLSKAQNTCQLYCKEPPRSLEQQLQEHRLQQKRLFLQKQSQLQAYFNQMQIAESSYPQPSQQLPLPRQETPPPSQQAPPFSLTQPLSPVLEPSSEQMQYSPFLSQYQEMQLQPLPSTSGPRAAPPLPTQLQQQQPPPPPPPPPPRQPGAAPAPLQFSYQTCELPSAASPAPDYPTPCQYPVDGAQQSDLTGPDCPRSPGLQEAPSSYDPLALSELPGLFDCEMLDAVDPQHNGYVLVN
in vitro kinase assay, 32P-labeling [1]: SIK2 was found to phosphorylate wild-type but not Ser171Ala mutant TORC2 in vitro
in vitro kinase assay, 32P-labeling [2]: SIK2 was found to phosphorylate wild-type but not Ser171Ala mutant TORC2 in vitro
